Measured values from patent publication US20110229472A1 (Amgen, published 2011).
Ends that are not written are not given here.

B1: TMP4 (22-residue capped peptide) (peptide)
peptide: QGALRDGPTLKQWLEYRRQAHS
notes: two-residue caps at each end; also called TMP04
B2: TMP2 (22-residue capped peptide) (peptide)
peptide: QGGAREGPTLRQWLEWVRVGHS
notes: two-residue caps at each end; also called TMP02
B3: TMP3 (22-residue capped peptide) (peptide)
peptide: QGRDLDGPTLRQWLPLPSVQHS
notes: two-residue caps at each end; also called TMP03

Molecular target: T1, Recombinant human MPL (human, UniProt P40238 26-491, limits assumed)
T1 construct: also called hu-mpl; hu-MPL
T1 sequence (looked up): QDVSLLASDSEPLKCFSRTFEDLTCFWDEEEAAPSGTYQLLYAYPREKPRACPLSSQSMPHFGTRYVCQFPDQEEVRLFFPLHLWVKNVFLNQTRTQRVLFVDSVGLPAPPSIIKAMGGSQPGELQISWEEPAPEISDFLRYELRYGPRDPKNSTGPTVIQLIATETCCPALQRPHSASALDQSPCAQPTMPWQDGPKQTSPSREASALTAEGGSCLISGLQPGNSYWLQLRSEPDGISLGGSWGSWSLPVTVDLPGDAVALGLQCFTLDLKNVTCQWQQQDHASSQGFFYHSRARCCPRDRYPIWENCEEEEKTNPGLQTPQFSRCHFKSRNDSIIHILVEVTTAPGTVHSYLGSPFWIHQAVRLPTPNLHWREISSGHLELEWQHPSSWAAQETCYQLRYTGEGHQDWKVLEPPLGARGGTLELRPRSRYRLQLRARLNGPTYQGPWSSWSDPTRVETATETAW
Experiment: phage ELISA titration: phagemid particles displaying the peptide, 5-fold dilution series (cfu/ul), on plate-coated recombinant human MPL, HRP-anti-M13 detection, chemiluminescent readout (Example 1, sections 4B and 5)

| Binder | EC50 (read off the curve) [cfu/ul] |
| --- | --- |
| QGWCKEGPTLREWLRWGFLCHS (not fully specified; cysteine pairing not given here, two-residue caps at each end; Two Cys) [TMP21 (22-residue capped peptide)] | ~800000 |
| QGCSSGGPTLREWLQCRRMQHS (not fully specified; cysteine pairing not given here, two-residue caps at each end; Two Cys) [TMP22 (22-residue capped peptide)] | ~200000 |
| B1 | ~100000 |
| B2 | ~400000 |
| QGCSWGGPTLKQWLQCVRAKHS (not fully specified; cysteine pairing not given here, two-residue caps at each end; Two Cys) [TMP23 (22-residue capped peptide)] | ~100000 |
| B3 | ~200000 |
